Laboratory results reported in the DeepSol protein solubility set.

Assay: soluble on expression in E. coli; label from the status in PepcDB or PDB records

Row | Sequence | soluble on expression in E. coli
1 | MGSDKIHHHHHHMAFTHTVGQHRHVFADLRTLLAKASPARSGDYLAGIAAASEEERMAARMALAAVPLTQFLSEALVPYEDDEVTRLIVDSHDAVAFAEIASLTVGDFRNWLLLHETDSTTLATVARGITPEMAAAVSKLMRNQDLIAVARKCHVVTRFRSTVGLPGRLSVRLQPNHPTDDPKGIAASIIDGLMYGCGDATIGVNPVSDSLGAIVSLLRMIDDLRCRYDIPTQSCVLTHVTHTLRAMEQGAPVDLVFQSVAGSERANAAFGISLSLLAEAHDAAQALARGTVGDNVMYFETGQGSALSANAHHGVDQQTMEARAYAVARRFSPLLVNTVVGFIGPEYLYDGKQIIRAGLEDHFCGKLLGVPMGCDVCYTNHAEADQDDMDTLLTLFGVAGINFIMGVPGADDIMLNYQSTSFHDALYLREVLGLRPAPEFEAWLQRMGIADGSGRLLEPAERQPLLELAHTL | not soluble
2 | GEYKMMMARVAALPEDYQFVFKKIQNYMWNFSAGNGMDMLHIQYELIDLFEAGAAEGRQVLDITGEDVASFADELVANAKTYVSK | soluble
3 | MGSDKIHHHHHHMKKIVERAPTVEEAIEKVVKKYGLGEGEYTVNVLEKGFHGIFGLFSKEAVVEVQITKAYFERRLKEFLTEILQVVDPEVKITVKSSGRSFFVDVESENAGRLIGKHGKTMGALQHIAMIFLNRLSDTKLNVILDMGDYREKRKKSLEKIVEEAVKKAISEKTKVVLDPMFSFERKIVHKLVRKHRGVISYSVGVEPYRRVVIEYSATRREGRRKHDIKESI | not soluble
4 | MAHHHHHHMLRGTPVRRASLRYRRPYWMMFLKGVDNWKIYTVIQQPDHQRTEMLYQAWLGGLDRPYTRPKCMANQPLWLSKKRHMLRKERLDGPETPLEKYVLEWHKKFHSFQGTERPTPDDLHTALDLVERPLDLSYALQLLGQCRNLNNIRFAKETFLVFLEACLRVGRRDCAEYALEHAEPLGFWFIDEDHRRYLQGEQTWYKLSPLDNLYYPVEENAKLNEGRKPITRLSPATESPGSGTAISDGEPSTDVEGETTVDDEIAQLEAELAALEREGGGK | not soluble
5 | MALSKRELDELKPWIEKTVKRVLGFSEPTVVTAALNCVGKGMDKKKAADHLKPFLDDSTLRFVDKLFEAVEEGRSSRHS | soluble
6 | MAHHHHHHMTEKENGNKDKRRKEKHRKHHRDRRESCNGVVNSSAAKTRPETAVAIEGADEEVENWDENRTRVDQLCQTYPNNMCNDCNNAGTRWASVNHGVFLCIRCSGIHRSLGVHVSKVKSANMDKWSAAEVHLMELIGNQRAKLLYEAHLPKDMKPMTFAESDATLQTFIQRKYQEKAFSVEAVDEKLRQYHKEARYGKKPKRNSSASRKKKANDGANDKAERSLKGEDTIKALYGSNAEVISKMSKRTGPIRGTFGVVNVGPEAYDERRKTLLEQFGFS | not soluble
7 | MSTPRPSLTLTLLQAREAAMSFFRPSLNQHGLTEQQWRVIRILRQQGEMESYQLANQACILRPSMTGVLARLERDGIVRRWKAPKDQRRVYVNLTEKGQQCFVSMSGDMEKNYQRIQERFGEEKLAQLLELLNELKKIKP | soluble
8 | EEAKEGVPKVAYISLSPPFVGNYALDGSPRLRVYKADVALRVTGDEAAKTVKHHEPLIRNQLVALFTQQTVDSMSNVEAKEHLRQEALKQVQQVLEAEEGKPIVEDLLFNNLIVQ | not soluble
9 | TPAQLISIAVTPINPSVAKGLIRQFKATGTYTDHSVQDVTALATWSSSNPGKAMVNNVTGSVTTVATGNTNIKATIDSISGSSVLNVTPALLTSIEITPTINSITHGLTKQFKATGIFSDKSTQNLTQLVTWISSDPSKIEIENTSGKKGIATASKLGSSNIKAVYKFIQSSPIPITVTDLKLKSITISPSSSSIAKGLTQQFKAIGTFIDGSEQEITNLVTWYSSKSDVAPINNAANAKGLATALSIGSSNISAIYNSISSNKINFNVSAATLDSIKINPVNNNIAKGLTQQYTALGVYSDSTIQDISDSVTWSSSNSDSISISNSTETKGKATALQIGNSKITATYNSISENIDITVSAATL | not soluble
10 | MRHSFFCIDSHTCGNPVRLVAGGGPLLPHLPISERRDLFVRNHDWVRQALMFEPRGHDIMSGAVIYPAYRDDCDFAVIFIEVSGCLPMCGAGTIGLVTAAIEEGLVTPRIPGRLSIETPAGKVDIQYDKPGEFVESVRIFNVASYLHAADVEVNVPGLGKLVVDIAYGGNYYAVIEPQVGWPGLDGMTAGDVVDLSQKLRDALGTICDPVHPDDERIRGVHHAIWCDRPVSAEADGRGAVFYGDKAIDRSPGGTGTSARMAQLHGKGRLKAGETFRQESLIGTIFEGKVEEETTVGSFSGIRPSIGGWARIIGHNTIFVDDRDPLAHGFQVRLEHHHHHH | not soluble
11 | MSLSQASTVCALNDHLPNTVLRLPLKYPSTNKELKSHEYFESQIAYTGCLIATTTHMVDHISWRLNNDLKTITLTPICISNPFQLECRTISLLLPSQVYPHCIDAVYHGEEGGYLVVDVIDENYLWITLRIEMNDFLHNTKNFRPLTLDQFESWGHISVPYSFELRSNPYCLRVLDERNVVVSLKDGGLLHFQRSSVLADFNVFNCEESAHFHLGGILDGIFKSGRADLTVDGVSSNAAIDATIVPDPSKSLIATLTVSKTIKFWDLKEHSLLRERTIHPQDTNTWLSFGPARYLQCYGNVLGVHSLLQTKHSTSIDFWDVSPLKEDQKSYKILHTVELLSPTINGAPSDSPFSNDIWFIQDFTLKFEKGNFTVLWKSNNSSILTIYDLKNLAENDKPPKLSQWTLSGSEGHHHHHH | soluble
12 | MATFEEVSVLGFEEFDKAVKEHESKTIFAYFSGSKDTEGKSWCPDCVEAEPVIREGLKHVTEDCVFIYCQVGDKPYWKDPNNDFRQKLKITAVPTLLKYGTPQKLVESECCQSSLVEMIFSED | soluble
13 | MYPDGLTENEKLKVKELCTMVNISDEDAIKLLKENDWDIAISSRRVSKQEDKTLVPGTSREEIDLDRLSSRLRVHGLAFYLPDFGGFPNEFRTFLEKDLIETQTQKRLEASRHLNWWHQFGQKLYPLSTTGDGNCLLHAASLGMWGVHDRQLSLRETLYELLTNGARKEAIRRRWKWVENHMNQSNGLALTLSENEWELEWDVVLGLSSPLPRKQEDNGSNSTDQIYESLEAIHVFALAHVLKRPVVVVSDTILRNAKGEELSPVAFGGIYLPLECPPSQCHRSPLVLCYDSAHFSPLVLMRTETNNKQIIPIIDVNRNLLPVHFAVDPGESFDWSKLETNSNTQTTTDMSQIDKLALISQYMDIIRLDVRRGSIRSSRRVRSAHAQLLTESRGENGQNLPQKSIKPRDLSAHSSDEQPSNNAKGMTLASSGIGSGRHEKWRLINEIRTHVLRTFRISSSTRGKEKLIDTDDCIARMNSTCVLASELLPTHHQYMDKIINEYMKSAKQRFQQNQRTQSDSRKRISRSFSASSLMLTCIGCDSEFKPASQVTNIMCDQCFAWQKMSVLTSNCDQFMGNSGPPCKSSTLPSFGSNDSNQNDKENIVEVLNVVPKDGAKTLTSMRAVEDENGVVHYYMDDEVADS | not soluble
14 | MWFIMMDTKDPPTLLDLATQNLLSNEHAAIQALEEIPRELFVPLFTAAFTGRHKNILTAIVKAWPFACLHIGALSVQEPERELLKALIESLQFLLALNSATRSPKLRILDLRQDAGCKTVCPEISTNSTICFRSCAHSEHSIFKIEGQESLSSSKSEAQPSRLPMELIVDISLDGTLRERNFFALLQNKVEQSLGSLHLCCRDLQINNLCECRHALSHLDLKCVDHLAVDESPLTEVTKLLSHTIQLDSLSLSKIACRSLNGRTFRNFITQLSRMNHLKELSLSSFCLTDHLENVLRVLSADLEFLYLPFCGLSYSDFKFLSECSQVSHLKLLNVNNNPIYWEDCEPFYYLLQNVSSTLQHLKICYCFLTDSTISVLIPALTRCSQLRVLHFYSNQITMGMLMRILELLTPLKELKHVIYPIPVHCYGRWHFQGSLDRQKVEDVQRQLNLMLQEAERSDMNWITYSD | not soluble
15 | MITMKIEDVYIWDINARWLGVTPYQLMENAGASVARVIEEKFGKNLKIAVFCGTGNNGGDGFVAARHLSYENDVTVFLIGEEVKIRSEEAKLNWNILKNLDFVKIKVLKDSSQIRELDLSEFDIIVDALLGAGTRGKPREPIKSAIEKINEYSGKVKIVSIDLPSGYPSEIRVKADFAVTFQWDKEEFKDFKRIIAKIGYPKELKYLVGPAHVKFAYKRKGEHKGQNGKLLIIGGSENYYGAPVLAASAAKHLVDLVFLLLPQNAARRVNDPDLIVREVDGLNFTPEHIKSALELVEKVDAIVIGPGIGVREETKEFVKGIIERVEKPIVVDADGLKIIAEFKDILKGKEIVLTPHAGEFKLLFGEKVPEDLVEKGKVVMRRAKEIGATILLKGKYDVISDGKVWLYNKTGNRGMTTGGTGDVLAGTVGAFLALGNKALKAAAAGAFLVGFAGDLVMEEKGEAFTARDVAEKIPIALKKIIEF | soluble
16 | MGSDKIHHHHHHMSEYLEIPELNKAFPFRSFVNEGEVLVYPHWHKEIEIIYALKGSLNLGVNDMPIQLNEGEIQIINGGDVHYFLASPNSERIVIQFDLSLFQEEMQMDGQNGTLREMLTEMAHLSREWPEETTAKVQSLIRNIHLESSNDSPGKHYILKADLLAIIGLIYREIPQKKTQPDSVISEKAVLKSKETLQKLDQIFSYVEKHYQEPVSLQEVADYTGFSTYYFTKFFKRNTGMTFVTFLNDYRLNKAKWMLLNEAFPVTEVAELAGFSSVKTFHHAFKRAMGVAPLKYRKTIYGNN | not soluble
17 | MDKIKVGLQYWIPQHGLTRLVGKLASAKAGSLTTAVIRWFIKQYNVNMDEAKHSDPKHFKTFNEFFVRELKEGARPITEGDEIITHPADACVSQFGPIEDGQLIQAKGHNYSAQELLGGDEKLAEEFKDGSFATLYLSPRDYHRVHMPCDGTLRQMIYVPGDLFSVNPLTAENVPNLFARNERVVCIFDTEFGPMAQVLVGATIVGSIEQVWAGTITPPRGNTVYKWDYPAEGDKAVILKKGEEMGRFKLGSTVINLFAKDAIEFDVSMENGQPTVMGTPYALKKLEHHHHHH | soluble
18 | MAGDPMSESLAQYQEDLRRFSDELIRIQTPIKILDAIKWPREMEERFLSSKGTVLPAIKQDFYQNIALPFDPAKTQAELLSLKNDIHRRLGKKDKLGKLLVANVDQYRLVVDMLGHRGTPTFGKLSQELYGSASHRLHGDRHTLRQLGDRLSYIFSLPAARHMNKHHPKIISAPEAVNVLSQRLEKYFHSDDMRVRLSDGIVSDAAVGGDTVKLNSKAMFSESDLNVYEVHEGWVHVGTTLNGRAQPHATWLSVGSPRVAATQEGLAVLLEMLTLSSNPGRARRISDRVAAVDMAENGADFIEVFNYFRELNLSAKDSYRVTQRVFRGGMVEGGSFFTKDISYVRGYVENINFIRSAITSGLPELIPMLFLGKLAIEDIPVLYQACQEGILTPPKYLPPMFDNFSGLYAWFGFASGLAGIDLKGVQRHFTRLFKDVPSIDPSLELLDDTEFDNNSDAAALEHHHHHH | soluble
19 | MSADENNLIWIDLEMTGLDPERDRIIEIATLVTDASLNILAEGPTIAVHQSDAQLALMDDWNVRTHTGSGLVDRVKASTMGERDAELATIEFLKTWVPAGKSPICGNSIGQDRRFLFKYMPELEAYFHYRYLDVSTLKELARRWKPEILAGFTKQGTHQAMDDIRESVAELAYYREHFIKL | not soluble
20 | MNRTAMRASQKDFENSMNQVKLLKKDPGNEVKLKLYALYKQATEGPCNMPKPGVFDLINKAKWDAWNALGSLPKEAARQNYVDLVSSLSPSLESSSQVEPGTDRKSTGFETLVVTSEDGITKIMFNRPKKKNAINTEMYHEIMRALKAASKDDSIITVLTGNGDYYSSGNDLTNFTDIPPGGVEEKAKNNAVLLREFVGCFIDFPKPLIAVVNGPAVGISVTLLGLFDAVYASDRATFHTPFSHLGQSPEGCSSYTFPKIMSPAKATEMLIFGKKLTAGEACAQGLVTEVFPDSTFQKEVWTRLKAFAKLPPNALRISKEVIRKREREKLHAVNAEECNVLQGRWLSDECTNAVVNFLSRKSKL | not soluble
